Data as given in paper PMC6465352 (Scientific Reports, 2019).
Blank lines part the entries; values can stand above or below the molecule they belong to.

Columns and labels:
SyCS [1] = target: T1, SyCS (Synechocystis sp. PCC 6803, UniProt Q59977); assay: DTNB assay at A412, relative activity; assay type: biochemical; details: read-out: % activity at 5 mM
T1 construct: gene gltA; full-length gltA (synthesized) in pGEX5X-1, GST-tagged, tag not reported cut; expressed in E. coli DH5alpha, glutathione-Sepharose purified
T1 sequence (Q59977 1-397): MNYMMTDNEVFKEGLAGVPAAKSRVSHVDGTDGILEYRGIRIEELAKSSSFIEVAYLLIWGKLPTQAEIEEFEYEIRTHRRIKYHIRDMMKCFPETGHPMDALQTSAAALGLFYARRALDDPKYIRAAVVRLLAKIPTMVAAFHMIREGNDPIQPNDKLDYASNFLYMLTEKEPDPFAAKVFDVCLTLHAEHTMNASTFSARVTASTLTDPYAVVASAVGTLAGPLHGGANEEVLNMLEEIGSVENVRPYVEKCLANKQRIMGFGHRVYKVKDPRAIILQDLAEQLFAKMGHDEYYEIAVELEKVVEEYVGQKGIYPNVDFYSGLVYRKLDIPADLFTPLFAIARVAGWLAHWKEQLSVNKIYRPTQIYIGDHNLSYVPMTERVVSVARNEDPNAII

SyCS [2] = target: T1, SyCS; assay: DTNB assay at A412, residual activity; assay type: biochemical; details: read-out: % activity at 5 mM
[3] = substrate: CC(=O)SCCNC(=O)CCNC(=O)[C@H](O)C(C)(C)COP(=O)(O)OP(=O)(O)OC[C@H]1O[C@@H](n2cnc3c(N)ncnc32)[C@H](O)[C@@H]1OP(=O)(O)O; assay: DTNB assay at A412, Lineweaver-Burk; assay type: biochemical, Synechocystis sp. PCC 6803; details: oxaloacetate 1 mM, no effector, 50 mM Tris-HCl pH 7.5, 37 °C, GST-tagged enzyme
Description: (§1) DTNB assay at […], Lineweaver-Burk on SyCS

[4] = substrate: O=C(O)CC(=O)C(=O)O; assay: DTNB assay at A412, Lineweaver-Burk; assay type: biochemical, Synechocystis sp. PCC 6803; details: acetyl-CoA 0.5 mM, no effector, 50 mM Tris-HCl pH 7.5, 37 °C, GST-tagged enzyme
Description: as §1

Molecule: O=C(O)CCC(=O)C(=O)O [2-oxoglutarate]
- activity at 5000 µM (SyCS [2]): 2%

B1: SyCS (Synechocystis sp. PCC 6803 substr. Kazusa) (protein)
chain: MNYMMTDNEVFKEGLAGVPAAKSRVSHVDGTDGILEYRGIRIEELAKSSSFIEVAYLLIWGKLPTQAEIEEFEYEIRTHRRIKYHIRDMMKCFPETGHPMDALQTSAAALGLFYARRALDDPKYIRAAVVRLLAKIPTMVAAFHMIREGNDPIQPNDKLDYASNFLYMLTEKEPDPFAAKVFDVCLTLHAEHTMNASTFSARVTASTLTDPYAVVASAVGTLAGPLHGGANEEVLNMLEEIGSVENVRPYVEKCLANKQRIMGFGHRVYKVKDPRAIILQDLAEQLFAKMGHDEYYEIAVELEKVVEEYVGQKGIYPNVDFYSGLVYRKLDIPADLFTPLFAIARVAGWLAHWKEQLSVNKIYRPTQIYIGDHNLSYVPMTERVVSVARNEDPNAII
notes: full-length gltA (synthesized) in pGEX5X-1, GST-tagged, tag not reported cut; expressed in E. coli DH5alpha, glutathione-Sepharose purified
- Km [3]: 220 ± 77 µM
- kcat [3]: 2.51 ± 0.24 s⁻¹
- kcat/Km [3]: 12100 ± 2950 M⁻¹ s⁻¹
- Km [4]: 91 ± 11 µM
- kcat [4]: 2.76 ± 0.26 s⁻¹
- kcat/Km [4]: 30500 ± 3170 M⁻¹ s⁻¹

Results, then the molecule that gave them:

- activity at 5000 µM (SyCS [1]): 369%
Molecule: Nc1ncnc2c1ncn2[C@@H]1O[C@H](COP(=O)(O)OP(=O)(O)O)[C@@H](O)[C@H]1O [ADP]

- activity at 5000 µM (SyCS [2]): 14%
Molecule: C=C(OP(=O)(O)O)C(=O)O [phosphoenolpyruvate]
